Here are results for one molecule from patent publication US20210355180A1 (published 2021).

The test has as its target T1, biotinylated anti-ABD goat antibody.
T1 construct: also called Anti-ABD surface
Nature of the test: SPR (Biacore 2000), periplasm diluted 15x over anti-ABD surface. The source says: SPR analysis of periplasmic samples: A selection of Aβ peptide binding polypeptides was subjected to an analysis of the response against biotinylated hAβ₁₋₄₀ using a Biacore 2000 instrument (GE Healthcare). Biotinylated anti-ABD goat antibody (produced in-house) and N-terminally biotinylated hAβ₁₋₄₀ (AnaSpec cat. no. AS-24648) were immobilized in separate flow cells on a streptavidin coated chip (Biacore Sensor Chip SA, cat. no. BR100032) using HBS-EP as running buffer (0.01 M HEPES pH 7.4, 0.15 M NaCl, 3 mM EDTA, 0.005% v/v Surfactant P20, GE Healthcare, cat. no. BR100188). The ligand immobilization levels on the surfaces were approximately 2000 RU for the anti-ABD antibody and 225 RU for hAβ₁₋₄₀. One flow cell surface on the chip was used as blank during analyte injections. HBS-EP was used as running buffer and the flow rate was 25 μl/min. The analytes, i.e. periplasmic preparations of Aβ peptide binding polypeptides as described above, were each diluted 15× in HBS-EP buffer and injected for 10 min, followed by dissociation in running buffer for 5 min. After dissociation, the surfaces were regenerated with 2 pulses of 10 mM glycin pH 2.0. […]
SPR analysis of periplasmic samples: The interactions of a subset of Z variants with anti-ABD goat antibody and hAβ₁₋₄₀ were analyzed in a Biacore instrument by injecting dilutions of periplasmic samples.
For orientation: SPR reads the build-up and loss of mass on a sensor chip optically.

B1: ABD (albumin binding domain GA3 from streptococcal Protein G), periplasm control (other)
chain: LAEAKVLANRELDKYGVSDYYKNLINNAKTVEGVKALIDEILAALP
notes: periplasm containing ABD only; also called negative control
As for B1, the “Response RU” value turned out to be 19.8 RU.
